Assay results published in patent EP3176583A2 (TLA Targeted Immunotherapies AB, dated 2017).
Values belong to the molecule of their own block, whether it stands above or below them. Bridge positions count the residues as written; N and C are the ends. Square brackets hold non-standard residues; d marks the D form. Side chains are listed from the residue outwards. * marks the point of attachment. Biotin = O=C1N[C@H]2[C@H](CS[C@H]2CCCCC(=O)*)N1; pGlu = O=C1CC[C@@H](C(=O)O)N1; Nle = CCCC[C@H](N)C(=O)O; AEEA = NCCOCCOCC(=O)O

Experiments:
hCCR7 (human) = hCCR7 (human) (UniProt P32248); experiment: cell-based or functional assay
Chain of hCCR7 (human) (P32248 25-378 limits assumed): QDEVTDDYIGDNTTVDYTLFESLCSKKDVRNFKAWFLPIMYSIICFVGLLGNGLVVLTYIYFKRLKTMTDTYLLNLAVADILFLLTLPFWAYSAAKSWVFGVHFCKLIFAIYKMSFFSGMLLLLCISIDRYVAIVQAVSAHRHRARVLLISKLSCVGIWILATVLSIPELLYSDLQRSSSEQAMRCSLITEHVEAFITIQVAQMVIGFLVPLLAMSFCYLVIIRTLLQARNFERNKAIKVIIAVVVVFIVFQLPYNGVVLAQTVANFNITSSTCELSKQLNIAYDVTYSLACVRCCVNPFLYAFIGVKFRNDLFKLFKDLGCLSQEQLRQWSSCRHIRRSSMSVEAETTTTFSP

hCCR9 = target: T1, hCCR9 (human, UniProt P51686 1-369); experiment: cell-based or functional assay
T1 sequence (looked up): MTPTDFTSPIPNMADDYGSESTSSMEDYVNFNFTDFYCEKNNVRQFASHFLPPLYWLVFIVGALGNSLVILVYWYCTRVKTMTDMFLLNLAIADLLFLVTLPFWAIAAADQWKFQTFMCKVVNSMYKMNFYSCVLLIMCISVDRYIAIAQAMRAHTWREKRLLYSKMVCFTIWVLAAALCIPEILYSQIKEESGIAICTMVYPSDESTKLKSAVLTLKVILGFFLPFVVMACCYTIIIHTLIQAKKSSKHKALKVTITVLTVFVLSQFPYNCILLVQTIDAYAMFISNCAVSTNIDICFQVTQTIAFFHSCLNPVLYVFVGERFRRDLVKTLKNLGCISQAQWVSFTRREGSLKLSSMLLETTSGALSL

EC50, agonist activity in an Aequorin assay (hCCR7 (human)): 11 nM
Molecule: biotinMIP-3β (human MIP-3β/CCL19 residues 1-77 with an additional Lys78 derivatised with Biotin) (from UniProt Q99731 22-98) (ligand)

EC50, agonist activity in an Aequorin assay (hCCR9): 67.9 nM
Molecule: native TECK (from UniProt O15444 24-150) (ligand)

EC50, agonist activity in an Aequorin assay (hCCR7 (human)): 1.6 nM
Molecule: recombinant native MIP-3β (from UniProt Q99731 22-98) (ligand)

EC50, agonist activity in an Aequorin assay (hCCR9): 63.6 nM
B1: TECK-Biotin-Nle (truncated human TECK/CCL25, residues 1-74 of the mature protein, Met to Nleu substitution, derivatised at Lys72 with PEG-Biotin) (ligand)
chain: [pGlu]GVFEDCCLAYHYPIGWAVLRRAWTYRIQEVSGSCNLPAAIFYLPKRHRKVCGNPKSREVQRA[Nle]KLLDARNK([AEEA-Biotin])VF
modifications: disulfide 7-35, 8-52; also: TFA salt
